Reference: article PMC9769556

B1: RecA of Deinococcus radiodurans (DrRecA), purified (natural protein)
chain: MSKDATKEISAPTDAKERSKAIETAMSQIEKAFGKGSIMKLGAESKLDVQVVSTGSLSLDLALGVGGIPRGRITEIYGPESGGKTTLALAIVAQAQKAGGTCAFIDAEHALDPVYARALGVNTDELLVSQPDNGEQALEIMELLVRSGAIDVVVVDSVAALTPRAEIEGDMGDSLPGLQARLMSQALRKLTAILSKTGTAAIFINQVREKIGVMYGNPETTTGGRALKFYASVRLDVRKIGQPTKVGNDAVANTVKIKTVKNKVAAPFKEVELALVYGKGFDQLSDLVGLAADMDIIKKAGSFYSYGDERIGQGKEKTIAYIAERPEMEQEIRDRVMAAIRAGNAGEAPALAPAPAAPEAAEA

What was measured:
[1] = test system: DrDprA (Deinococcus radiodurans R1 (ATCC 13939)); assay: EMSA; conditions: EMSA: 10 mM Tris-HCl pH 7.5, 50 mM NaCl, 1 mM DTT, 10 min at 37 C, 2 nM 32P probe
[2] = biological target: DNA processing protein A of Deinococcus radiodurans (DrDprA), purified recombinant wild type (D. radiodurans); assay: SPR; 2.5 uM DrDprA immobilised on a bare gold sensor chip by EDC-NHS chemistry at 20 C (Autolab Esprit); DrRecA 0.5 to 3 uM in the mobile phase, 20 mM Tris pH 7.6, 1 mM MgCl2

Molecule	Kd [1]	Kd [2]
167-bp dsDNA	3.53 µM	–
167-mer ssDNA	3.04 µM	–
B1	–	0.293 µM
